Assay results reported in patent publication US20250011453A1, “METHODS FOR TREATING CANCER USING A COMBINATION OF A PD-1 ANTAGONIST, AN ILT4 ANTAGONIST, AND CHEMOTHERAPEUTIC AGENTS” (Merck Sharp & Dohme LLC, priority 2021, published 2025).

Test: Phase 1 open label, multi-arm, multi-center study of MK-4830 as monotherapy or in combination with pembrolizumab (NCT03564691): safety and tolerability
Assay type: in vivo, human

In the case of “MK-4830: anti-ILT4 antibody; light chain SEQ ID NO:5, heavy chain SEQ ID NO:10 (Table 4)”, the “Grade 3 drug-related AE” value (1600 mg dose level, MK-4830 monotherapy cohort) is reported as “one episode of transient Grade 3 blood pressure increase”, the “participants with one or more drug-related AEs” value (51 treated participants (monotherapy and pembrolizumab combination pooled), preliminary data, majority Grade 1) is reported as 51% and the “Grade 4 or 5 drug-related AEs or SAEs” value (all participants (51 treated), preliminary data) is reported as “no Grade 4 or 5 drug-related AEs or SAEs”. The “target dose limiting toxicity (DLT) rate” value (participants with advanced solid tumors, MK-4830 monotherapy up to 1600 mg and MK-4830 up to 800 mg plus pembrolizumab, May 10, 2019 data cutoff) was “not reached in any of the cohorts”.
